For assay [1], the target named is Drosophila frizzled 2 (Dfz2) (Drosophila), Q9VVX3. Briefly: confocal immunofluorescence, human 293 cells transiently transfected with Dfz2, pretreated with chlorate and heparatinase.
The target is the same in assay [2]. Briefly: confocal immunofluorescence, Dfz2-transfected S2 cells incubated with Wg conditioned medium, anti-Wg antiserum.
Another assay deals with T1, Notch (UniProt P07207 53-2703, limits assumed).
T1 construct: whole, on cells
Briefly: confocal immunofluorescence of cells incubated with Wg conditioned medium, anti-Wg antiserum and cy3 secondary antibody.

One molecule from patent US20070269808A1 (published 2007) can be followed below.

Sequence of Drosophila frizzled 2 (Dfz2) (Drosophila), Q9VVX3 (Q9VVX3 other isoform, or with tags, fused parts or gaps limits assumed): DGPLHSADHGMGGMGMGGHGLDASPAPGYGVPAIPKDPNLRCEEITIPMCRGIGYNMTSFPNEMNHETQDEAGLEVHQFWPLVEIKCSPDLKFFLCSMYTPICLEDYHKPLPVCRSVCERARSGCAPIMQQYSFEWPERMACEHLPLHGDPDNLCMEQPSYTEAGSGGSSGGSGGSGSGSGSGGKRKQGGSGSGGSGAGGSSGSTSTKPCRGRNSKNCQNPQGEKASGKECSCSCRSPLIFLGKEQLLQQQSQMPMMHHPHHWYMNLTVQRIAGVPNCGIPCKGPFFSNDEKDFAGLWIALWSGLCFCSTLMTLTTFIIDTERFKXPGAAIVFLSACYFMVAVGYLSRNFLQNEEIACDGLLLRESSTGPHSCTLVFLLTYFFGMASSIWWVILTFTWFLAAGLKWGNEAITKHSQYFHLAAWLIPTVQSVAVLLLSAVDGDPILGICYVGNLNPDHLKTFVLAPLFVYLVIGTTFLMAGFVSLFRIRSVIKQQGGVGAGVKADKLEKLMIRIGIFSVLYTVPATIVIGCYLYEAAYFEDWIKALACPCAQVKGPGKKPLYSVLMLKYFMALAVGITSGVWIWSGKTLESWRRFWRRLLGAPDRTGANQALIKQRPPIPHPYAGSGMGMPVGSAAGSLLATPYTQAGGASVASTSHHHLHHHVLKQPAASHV
T1 sequence (P07207 53-2703 limits assumed): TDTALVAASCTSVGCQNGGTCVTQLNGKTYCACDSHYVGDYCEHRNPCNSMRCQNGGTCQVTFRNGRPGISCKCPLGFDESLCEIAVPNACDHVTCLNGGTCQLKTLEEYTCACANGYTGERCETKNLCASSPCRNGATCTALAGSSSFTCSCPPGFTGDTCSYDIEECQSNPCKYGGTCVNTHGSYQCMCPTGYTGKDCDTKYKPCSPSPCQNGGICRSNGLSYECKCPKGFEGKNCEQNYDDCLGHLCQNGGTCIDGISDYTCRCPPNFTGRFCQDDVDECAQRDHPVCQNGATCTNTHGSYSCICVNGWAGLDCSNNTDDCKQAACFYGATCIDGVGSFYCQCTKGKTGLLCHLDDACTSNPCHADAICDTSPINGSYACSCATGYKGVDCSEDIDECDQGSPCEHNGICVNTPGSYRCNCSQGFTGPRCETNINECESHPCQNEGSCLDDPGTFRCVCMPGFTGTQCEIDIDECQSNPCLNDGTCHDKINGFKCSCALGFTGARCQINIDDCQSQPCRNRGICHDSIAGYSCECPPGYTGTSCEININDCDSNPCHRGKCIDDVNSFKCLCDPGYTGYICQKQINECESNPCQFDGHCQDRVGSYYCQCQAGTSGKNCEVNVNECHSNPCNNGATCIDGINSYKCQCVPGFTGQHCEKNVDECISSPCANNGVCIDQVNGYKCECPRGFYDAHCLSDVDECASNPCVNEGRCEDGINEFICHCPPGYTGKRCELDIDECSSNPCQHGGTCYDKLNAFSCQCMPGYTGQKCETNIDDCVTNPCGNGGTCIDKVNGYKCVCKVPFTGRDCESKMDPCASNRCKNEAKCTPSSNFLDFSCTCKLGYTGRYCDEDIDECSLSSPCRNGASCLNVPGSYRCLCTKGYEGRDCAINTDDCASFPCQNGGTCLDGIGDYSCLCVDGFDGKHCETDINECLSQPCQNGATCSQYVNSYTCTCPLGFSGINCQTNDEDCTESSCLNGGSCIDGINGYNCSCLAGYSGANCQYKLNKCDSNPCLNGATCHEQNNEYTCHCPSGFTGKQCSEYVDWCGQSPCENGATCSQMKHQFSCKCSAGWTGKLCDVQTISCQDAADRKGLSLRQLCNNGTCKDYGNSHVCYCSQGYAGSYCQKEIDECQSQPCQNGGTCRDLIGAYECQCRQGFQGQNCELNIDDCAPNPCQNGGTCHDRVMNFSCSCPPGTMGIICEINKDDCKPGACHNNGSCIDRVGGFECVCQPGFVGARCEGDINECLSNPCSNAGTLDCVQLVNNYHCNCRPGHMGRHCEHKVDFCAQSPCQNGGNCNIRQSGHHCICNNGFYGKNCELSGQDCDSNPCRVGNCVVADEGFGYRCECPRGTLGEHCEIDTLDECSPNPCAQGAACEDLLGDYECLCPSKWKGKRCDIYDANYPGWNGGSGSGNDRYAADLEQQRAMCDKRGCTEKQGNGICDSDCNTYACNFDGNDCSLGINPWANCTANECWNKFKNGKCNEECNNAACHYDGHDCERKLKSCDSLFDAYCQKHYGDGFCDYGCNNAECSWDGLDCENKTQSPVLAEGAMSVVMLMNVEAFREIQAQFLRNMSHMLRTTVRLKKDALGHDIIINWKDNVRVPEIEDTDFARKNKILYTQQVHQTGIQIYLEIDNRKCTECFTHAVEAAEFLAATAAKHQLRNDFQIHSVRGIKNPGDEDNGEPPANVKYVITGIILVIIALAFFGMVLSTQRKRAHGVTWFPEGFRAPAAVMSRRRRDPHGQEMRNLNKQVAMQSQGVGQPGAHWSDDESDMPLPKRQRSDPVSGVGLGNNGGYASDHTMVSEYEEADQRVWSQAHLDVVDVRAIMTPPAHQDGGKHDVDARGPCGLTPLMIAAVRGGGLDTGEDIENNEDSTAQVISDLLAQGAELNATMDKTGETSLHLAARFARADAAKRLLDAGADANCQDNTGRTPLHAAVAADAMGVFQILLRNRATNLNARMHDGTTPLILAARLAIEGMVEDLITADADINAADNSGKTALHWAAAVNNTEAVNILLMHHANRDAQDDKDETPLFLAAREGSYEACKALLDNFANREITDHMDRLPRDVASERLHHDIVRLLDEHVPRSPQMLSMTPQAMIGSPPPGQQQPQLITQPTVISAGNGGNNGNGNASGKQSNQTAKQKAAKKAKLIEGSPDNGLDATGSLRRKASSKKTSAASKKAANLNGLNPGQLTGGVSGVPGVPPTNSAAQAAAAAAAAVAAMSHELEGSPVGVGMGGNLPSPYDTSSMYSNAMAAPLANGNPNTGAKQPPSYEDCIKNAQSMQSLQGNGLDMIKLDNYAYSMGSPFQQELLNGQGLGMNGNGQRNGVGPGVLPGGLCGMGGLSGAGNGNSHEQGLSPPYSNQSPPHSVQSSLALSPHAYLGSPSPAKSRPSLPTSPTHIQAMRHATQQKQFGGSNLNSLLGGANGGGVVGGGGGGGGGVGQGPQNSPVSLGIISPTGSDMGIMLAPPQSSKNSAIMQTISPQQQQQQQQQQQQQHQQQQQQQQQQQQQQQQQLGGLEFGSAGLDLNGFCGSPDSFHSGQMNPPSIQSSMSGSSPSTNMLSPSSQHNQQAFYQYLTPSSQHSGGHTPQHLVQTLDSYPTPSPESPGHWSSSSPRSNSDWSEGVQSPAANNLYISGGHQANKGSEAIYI

B1: wingless (Wg) protein (ligand, Drosophila, UniProt P09615 18-468, looked up)
chain: GSSLSQVEGKQKSGRGRGSMWWGIAKVGEPNNITPIMYMDPAIHSTLRRKQRRLVRDNPGVLGALVKGANLAISECQHQFRNRRWNCSTRNFSRGKNLFGKIVDRGCRETSFIYAITSAAVTHSIARACSEGTIESCTCDYSHQSRSPQANHQAGSVAGVRDWEWGGCSDNIGFGFKFSREFVDTGERGRNLREKMNLHNNEAGRAHVQAEMRQECKCHGMSGSCTVKTCWMRLANFRVIGDNLKARFDGATRVQVTNSLRATNALAPVSPNAAGSNSVGSNGLIIPQSGLVYGEEEERMLNDHMPDILLENSHPISKIHHPNMPSPNSLPQAGQRGGRNGRRQGRKHNRYHFQLNPHNPEHKPPGSKDLVYLEPSPSFCEKNLRQGILGTHGRQCNETSLGVDGCGLMCCGRGYRRDEVVVVERCACTFHWCCEVKCKLCRTKKVIYTCL
notes: mature; Used as concentrated conditioned medium, not purified; It was detected as bands of about 52 kD, 'the size of the mature Wg protein'; also called soluble Wg protein; metabolically labeled Wg protein
Take B1: the percent of transfected cells positive in assay [1] lay within 10 to 20%. Moreover, the percent of cells stained in assay [2] worked out at 80%. In the assay with Notch, the binding result is “no binding”.
